Reference: article PMC8754645 (Nucleic Acids Research, 2021)

Assays:
[1] = target: PsrA-His6 (His-tagged PsrA, LysR family transcriptional regulator of Serratia marcescens JNB5-1) (Serratia marcescens JNB5-1); assay: SEC
PsrA = assay: isothermal titration calorimetry, one-site model; assay type: binding, Serratia; conditions: 50 mM PBS pH 7.4, 25°C; 30 μM PsrA titrated with 0.3 mM ligand; effector, no DNA

| Compound | stoichiometry N [1] | Kd (PsrA) [µM] |
| --- | --- | --- |
| PsrA-His6 (His-tagged PsrA, LysR family transcriptional regulator of Serratia marcescens JNB5-1) (natural protein) | 4 | – |
| O=C(O)[C@@H]1CCCN1 [L-proline] | – | 13.6 |
